Measurements: publication PMC2891831, “Insight into the Mechanisms of Adenovirus Capsid Disassembly from Studies of Defensin Neutralization” (PLoS Pathogens, 2010)

Tests used:
CAR receptor [1] = molecular target: T1, CAR receptor (human (endogenous in A549), UniProt P78310 20-365); test: flow cytometry on cells; as a6, but the Alexa Fluor 488-labelled Ad5.eGFP was pre-incubated with 20 µM HD5 for 45 min on ice; settings: one partner purified
T1 construct: source: endogenous, on A549 cells
T1 sequence: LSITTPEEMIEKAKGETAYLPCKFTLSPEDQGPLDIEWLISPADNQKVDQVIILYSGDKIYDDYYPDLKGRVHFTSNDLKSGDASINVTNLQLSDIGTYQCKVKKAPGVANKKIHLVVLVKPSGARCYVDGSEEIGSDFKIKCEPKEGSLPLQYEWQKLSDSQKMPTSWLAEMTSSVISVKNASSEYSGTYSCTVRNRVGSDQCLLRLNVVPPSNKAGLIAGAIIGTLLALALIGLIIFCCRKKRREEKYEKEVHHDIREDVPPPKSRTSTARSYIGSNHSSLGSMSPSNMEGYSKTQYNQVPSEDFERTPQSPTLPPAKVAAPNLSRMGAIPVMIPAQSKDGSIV

CAR receptor [2] = molecular target: T1, CAR receptor; test: flow cytometry on cells; A549 cells in PBS + 0.2% sodium azide incubated with or without 200 nM 5FK or 16FK, 45 min on ice (100 nM in the legend), then combined with Alexa Fluor 488-labelled Ad5.eGFP without defensin (virus pre-incubated with 20 µM HD5-Abu was equivalent to virus alone), 45 min on ice; settings: one partner purified

B1: recombinant HAdV-5 fiber knob (domain or fragment)
chain: GAITVGNKNNDKLTLWTTPAPSPNCRLNAEKDAKLTLVLTKCGSQILATVSVLAVKGSLAPISGTVQSAHLIIRFDENGVLLNNSFLDPEYWNFRNGDLTEGTAYTNAVGFMPNLSAYPKSHGKTAKSNIVSQVYLNGDKTKPVTLTITLNGTQETGDTTPSAYSMSFSWDWSGHNYINEIFATSSYTFSYIAQE
notes: fiber knob, residues 387-581 of the HAdV-5 fiber; also called 5FK
fold reduction of HAdV-5 binding to cells with 5FK compared to 16FK, virus pre-incubated with HD5 (CAR receptor [1]): 1.6 fold | fold reduction of HAdV-5 binding to cells with 5FK compared to 16FK (CAR receptor [2]): 5.2 fold
